Laboratory results taken from patent US20030083294.
Where two headings read alike, the source gives them in different places.

Key:
[1] = target: T1, coagulation factor IXa (FIXa) (Homo sapiens) (UniProt P00740+P00740); test: competition; conditions: 2'-F pyrimidines, 2'-OH purines; 3-nt 2'-OMe 3' tail; comparable to 9.3t
[2] = target: T1, coagulation factor IXa (FIXa) (Homo sapiens); conditions: 2'-F pyrimidines, 2'-OH purines; physiologic salt and pH, 37 C
[3] = target: coagulation factor VIIa (FVIIa) (UniProt P08709+P08709); conditions: 2'-F pyrimidines, 2'-OH purines; <10% RNA bound at up to 5 uM protein; >5000-fold specificity
[4] = target: activated protein C (APC) (UniProt P04070+P04070); conditions: 2'-F pyrimidines, 2'-OH purines; <10% RNA bound at up to 5 uM protein; >5000-fold specificity
[5] = target: T2, coagulation factor Xa (FXa) (Homo sapiens) (UniProt P00742+P00742); conditions: 2'-F pyrimidines, 2'-OH purines; <10% RNA bound at up to 5 uM protein; >5000-fold specificity
[6] = target: coagulation factor XIa (FXIa) (UniProt P03951+P03951); conditions: 2'-F pyrimidines, 2'-OH purines; <10% RNA bound at up to 5 uM protein; >5000-fold specificity
[7] = target: T2, coagulation factor Xa (FXa) (Homo sapiens); conditions: 2'-F pyrimidines?
[8] = target: T2, coagulation factor Xa (FXa) (Homo sapiens); conditions: 2'-F pyrimidines?; versus 11F7t; no anticoagulant activity in PT or APTT

Sequence: AUGGGGACUAUACCGCGUAAUGCUGCCUCCCCAUN [9.3t-3NT]
- Kd [1]: < 1.5 nM

Sequence: AUGGGGACUAUACCGCGUAAUGCUGCCUCCCCAUN [9.3t]
- Kd [2]: 0.6 nM
- Kd [3]: > 5000 nM
- Kd [4]: > 5000 nM
- Kd [5]: > 5000 nM
- Kd [6]: > 5000 nM

Sequence: GAGAGCCCCAGCGAGAUAAUACUUGGCCCCGCUCUUN [11F7t]
- Kd [7]: 1.5 nM

Sequence: GAGAGCCCCAGCGAGAUAAUACUUGUACCCGCUCUUN [11F7tM]
- binding signal (fold loss of affinity) [8]: > 1300
